First the molecules themselves.
B2: 14-3-3σ-ΔC (C-terminally truncated human 14-3-3σ) (domain or fragment, UniProt P31947 1-231, looked up)
chain: MERASLIQKAKLAEQAERYEDMAAFMKGAVEKGEELSCEERNLLSVAYKNVVGGQRAAWRVLSSIEQKSNEEGSEEKGPEVREYREKVETELQGVCDTVLGLLDSHLIKEAGDAESRVFYLKMKGDYYRYLAEVATGDDKKRIIDSARSAYQEAMDISKKEMPPTNPIRLGLALNFSVFHYEIANSPEEAISLAKTTFDEAMADLHTLSEDSYKDSTLIMQLLRDNLTLWT
notes: 14-3-3σ, human, C-terminally truncated gene fragment (ΔC) cloned into pPROEX-HTb; the structures show 'all 231 residues of the 14-3-3 monomer'; No removal of the His6 tag is described; The dimer in the crystals is formed with a symmetry mate; also called 14-3-3-ΔC; source: E. coli BL21 Rosetta (DE3), purified (nickel-nitrilotriacetic acid column)

Values joined by “and” are separate entries in the source; they are usually repeats but may differ in a detail not shown here. Equal entries are not always repeated. Where no end group is shown, it is not given here. [ ]: non-standard residue; d: D form. pS = N[C@@H](COP(=O)(O)O)C(=O)O

The target in one series is T1, 14-3-3 theta (Homo sapiens).
T1 chain: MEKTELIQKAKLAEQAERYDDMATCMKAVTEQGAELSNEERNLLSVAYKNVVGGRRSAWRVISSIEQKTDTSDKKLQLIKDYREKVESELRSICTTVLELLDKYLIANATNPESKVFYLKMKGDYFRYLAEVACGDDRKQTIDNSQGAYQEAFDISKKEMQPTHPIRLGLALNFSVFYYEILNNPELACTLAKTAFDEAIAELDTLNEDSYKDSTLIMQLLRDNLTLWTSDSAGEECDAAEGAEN
The series is described as follows: MST.

A further series addresses T2, 14-3-3 epsilon (Homo sapiens).
T2 chain: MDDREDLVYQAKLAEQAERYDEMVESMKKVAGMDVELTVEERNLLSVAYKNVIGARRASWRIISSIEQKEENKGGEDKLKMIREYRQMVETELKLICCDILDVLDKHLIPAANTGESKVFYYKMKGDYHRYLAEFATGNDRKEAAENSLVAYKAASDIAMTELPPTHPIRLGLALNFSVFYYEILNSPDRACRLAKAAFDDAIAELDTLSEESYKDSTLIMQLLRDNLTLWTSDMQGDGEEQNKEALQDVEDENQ
Briefly: MST.

For series [1], the target named is T3, 14-3-3σ-ΔC (C-terminally truncated human 14-3-3σ) (human, UniProt P31947 1-231).
T3 chain: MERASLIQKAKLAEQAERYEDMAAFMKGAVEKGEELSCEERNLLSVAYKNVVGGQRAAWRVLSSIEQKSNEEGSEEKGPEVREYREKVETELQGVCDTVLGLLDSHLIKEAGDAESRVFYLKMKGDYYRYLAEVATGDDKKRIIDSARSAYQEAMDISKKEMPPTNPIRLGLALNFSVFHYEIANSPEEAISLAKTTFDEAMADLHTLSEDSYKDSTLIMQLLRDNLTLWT
The series is described as follows: MST.

For series [2], the target named is 14-3-3σ-ΔC (C-terminally truncated human 14-3-3σ) (human) (UniProt P31947). Briefly: MST; label-free, intrinsic fluorescence of the 14-3-3 protein; 0.6 µM 14-3-3 protein titrated with peptide; 25 mM MES pH 6.5, 5 mM MgCl2, 5 mM CaCl2; 25°C.
Series [3] concerns the target B2. The series is described as above. The conditions noted are these: both partners purified.
Series [4] deals with the molecule itself. The series is described as follows: crystal structure; protein and peptide mixed 1:1.5; 0.1 M HEPES-NaOH pH 7.5, 0.2 M CaCl2, 24-28% PEG 400, 5% glycerol, 1 mM TCEP, 4°C.
Series [5] concerns the target 14-3-3σ-ΔC (C-terminally truncated human 14-3-3σ) (human) (UniProt P31947). The series is described as follows: ITC; 150 µM 14-3-3σ-ΔC in the cell, fourfold-concentrated phosphopeptide in the needle; 2 µl injections; 25°C; one-site fit; apparent.

Regarding GRRSI[pS]FSVGA (also: phosphoserine at 103 (place in chain not given here)) [Sirt3^pS103 phospho-endecamer peptide], the Kd is 52 µM with 14-3-3 theta; > 267 µM with 14-3-3 epsilon; 10 µM in series [1]; 1.5 µM and 2.1 µM in series [2].

B1: Sirt3^S103 nonphosphorylated peptide (peptide)
chain: GRRSISFSVGA
modifications: none (nonphosphorylated Ser103). Limits are not given; they are taken from the 11-residue peptide in PDB 8ANC entity 2 (GRRSISFSVGA, S103 at position 6), assuming the same endecamer …
Take B1: in series [3], the Kd was ~881 µM.

Take B2: in series [4], the binding result is listed as “binds”.

Regarding VLSSS[pS]CGSNS (also: phosphoserine at 670 (place in chain not given here)) [Sirt1^pS670 phospho-endecamer peptide], the values for the Kd (in the series with 14-3-3 theta; in the series with 14-3-3 epsilon; in series [5]) were 93 µM, > 183 µM and 5 µM, respectively.

Source of the values: article PMC12809495, “Potential 14-3-3 binding sites in sirtuins reveal extended phosphosite-recognition modes” (Acta Crystallographica Section F: Structural Biology …, 2026).
